# Test results: patent publication US20230089620A1 (JIANGSU HENGRUI PHARMACEUTICALS, published 2023)
# Experiments:
# [1] = biological target: T1, biotin-labeled IL-2 with a human Fc-tag (Sanyou Biopharmaceutical, GenBank Accession No: P60568-1) (UniProt P60568 21-153, biotin-labeled (site not stated)); assay: Octet: biotin-IL-2-Fc sensor loaded with antibody (500 nM), reading at 230 s of IL-2Rβ-Fc (8000 nM) binding; lower = stronger blocking
# T1 construct: Bought reagent; also called biotinylated IL-2-Fc; not shown: human Fc-tag
# Experimental: A Streptavidin biosensor (Fortebio, #18-5020) was immersed in 200 μL of KB buffer (PBS, pH 7.4, 0.05% tween-20, 0.1% BSA) for 60 s for the wetting treatment. […] The IL-2Rβ-Fc (CJ82, Novoprotein) was diluted to a final concentration of 8000 nM with the KB buffer, and the sensor was immersed in the antibody solution for association for 300 s. […] The values at 230 s after the beginning of the binding of IL-2Rβ-Fc were read.
# [2] = biological target: T1, biotin-labeled IL-2 with a human Fc-tag …; assay: competition ELISA: antibody titrated, pre-incubated with biotin-IL-2-Fc (5 µg/mL); competitor coated IL-2Rβ-Fc
# Experimental: (§1) IL-2Rβ-Fc (CJ82, Novoprotein) was diluted to 8 μg/mL with PBS and added at 30 μL/well to coat an ELISA plate, and the plate was incubated overnight at 4° C. The plate was washed with PBST 3 times. The plate was blocked with 1% BSA for 1 h at room temperature and washed with PBST 3 times. […] The plate was incubated at room temperature for 1 h, and washed with PBST 3 times. 30 μL of secondary antibody NeutrAvidin-HRP diluted in a 1:6000 ratio was added, and the plate was incubated at room temperature for 1 h and washed with PBST 9 times. 30 μL of TMB was added for color developing for 5-10 min at room temperature, then 30 μL of 2 M HCl or H₂SO₄ was added to terminate the reaction. The plate was read for data by a microplate reader at OD 450.
# [3] = biological target: T1, biotin-labeled IL-2 with a human Fc-tag …; assay: ELISA, antibody titrated and captured by anti-human IgG, biotin-IL-2-Fc 2 µg/mL
# Experimental: Anti-human IgG (STAR161, Bio-rad) was diluted to 2 μg/mL with PBS and added at 30 μL/well to coat an ELISA plate, and the plate was incubated overnight at 4° C. The plate was washed with PBST 3 times. The plate was blocked with 1% BSA for 1 h at room temperature and washed with PBST 3 times. […] 30 μL of the antibody solution was added to an ELISA plate, and the plate was incubated at room temperature for 1 h and washed with PBST 3 times. […] The plate was incubated at room temperature for 1 h and washed with PBST 3 times. 30 μL of secondary antibody NeutrAvidin-HRP diluted in a 1:6000 ratio was added. The plate was incubated at room temperature for 1 h and washed with PBST 9 times. 30 μL of TMB was added for color developing for 5-10 min at room temperature, then 30 μL of 2M HCl or H₂SO₄ was added to terminate the reaction. The plate was read for data by a microplate reader at OD 450.
# [4] = biological target: T1, biotin-labeled IL-2 with a human Fc-tag …; assay: competition ELISA: antibody titrated, pre-incubated with biotin-IL-2-Fc (1 µg/mL); competitor coated IL-2Rα-Fc
# Experimental: as §1, with “IL-2Rα-Fc (CJ78,” for “IL-2Rβ-Fc (CJ82,”, “Novoprotein) (Accession #NP_000408)” for “Novoprotein)”, “0.5” for “8”
# [5] = biological target: T2, IL-2-His (CX66, Novoprotein) (UniProt P60568 21-153); assay: Octet: reading at 230 s of IL-2-His (100 nM) + antibody (500 nM) on biotin-IL-2Rα-Fc sensor; lower = stronger blocking
# T2 construct: Bought reagent; not shown: His tag
# Experimental: A Streptavidin biosensor (Fortebio, #18-5020) was immersed in 200 μL of KB buffer (PBS, pH 7.4, 0.05% tween-20, 0.1% BSA) for 60 s for the wetting treatment. Then, biotinylated IL-2Rα-Fc (CJ78, Novoprotein) was diluted to 10 μg/mL with the KB buffer, and the sensor was immersed in 200 μL of the solution for 150 s. The sensor was immersed in the KB buffer for 60 s to elute excess IL-2Rα. […] The sensor was immersed in the mixture for 300 s for association. […] The values at 230 s after the beginning of the binding were read.
# IL-2 (C013, Novoprotein) = IL-2 (C013, Novoprotein) (UniProt P60568 21-153); assay: SPR (Biacore T200), antibody captured on Protein A chip, IL-2 analyte, 1:1 model
# Experimental: The solutions flowed at a flow rate of 30 μL/min for dissociation for 300 s. The reaction signals were detected in real time to obtain association and dissociation curves. After the dissociation was completed for each assay cycle, the chip was washed and regenerated with 10 mM Gly-HCl, pH 2.0.
# T1 sequence (P60568 21-153 limits assumed, one chain of several): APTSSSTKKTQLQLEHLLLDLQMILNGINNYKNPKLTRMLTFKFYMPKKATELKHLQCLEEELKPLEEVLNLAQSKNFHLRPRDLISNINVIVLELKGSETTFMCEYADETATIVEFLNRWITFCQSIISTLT
# Sequence of IL-2 (C013, Novoprotein) (P60568 21-153 limits assumed): as the sequence (P60568 21-153 limits assumed, one chain of several) above
# T2 sequence (P60568 21-153 limits assumed): as the sequence (P60568 21-153 limits assumed, one chain of several) above
Binder,Values for blocking IL-2Rβ at an Octet level [1],IC50 [2],EC50 [3],IC50 [4],Values for blocking IL-2Rα at an Octet level [5],"Kd (IL-2 (C013, Novoprotein))","koff (IL-2 (C013, Novoprotein))","kon (IL-2 (C013, Novoprotein))"
"C2-53 full-length fully human anti-IL-2 antibody (antibody, human IgG1, kappa, L234A L235A, V domains shown, Human IgG1 with LALA mutation, kappa light chain) VH: EVQLVESGGGLVQPGRSLILSCAASGFTFDDYAMHWVRQAPGKGLEWVSGISWNSGSIGYADSVKGRFTISRDNAKNSLYLQMNSLRAEDTALYYCAKDQLRWGTYYYYGMDVWGQGTTVTVSS VL: DIQMTQSPSTLSASVGDRVTITCRASQSVSIWVAWYQQKPGKAPKLLIYKASSLERGVPTRFSGSGSGTEFTLTISSLQPEDFATYHCQQYDTGATFGQGTKVEMKR",0.017,1.44 µg/mL,0.73 µg/mL,0.659 µg/mL,0.41,0.267 nM,0.00437 s⁻¹,1.64e+07 M⁻¹ s⁻¹
"D2-60 full-length fully human anti-IL-2 antibody (antibody, human IgG1, kappa, L234A L235A, V domains shown, Human IgG1 with LALA mutation, kappa light chain) VH: QVQLVQSGAEVKKPGASVKVSCKASGYTFTSYGISWVRQAPGQGLEWMGWISAYNGNTNYAQKLQGRVTMTTDTSTSTAYMELRSLRSDDTAVYYCAREYSSWYSGGMDVWGQGTTVTVSS VL: DIQMTQSPSSLSASVGDRVTITCRASQGISNYLAWYQQKPGKVPKLLIYAASTLQSGVPSRFSGSGSGTDFTLTISSLQPEDVATYYCQKYDSAPFTFGQGTRLEIKR",0.086,8.27 µg/mL,1.43 µg/mL,–,0.754,12.8 nM,0.00651 s⁻¹,509000 M⁻¹ s⁻¹
"D3-68 full-length fully human anti-IL-2 antibody (antibody, human IgG1, kappa, L234A L235A, V domains shown, Human IgG1 with LALA mutation, kappa light chain) VH: QVQLVQSGPEVKKPGASVKVSCKASGYTFTSYGISWVRRAPGQGLEWMGWISAYNGNTNYAQKLQGRVTMTTDTSTSTAYMELRSLRSDDTAVYYCARDLQSPTYYYGSGVIDYWGQGTLVTVSS VL: DIQLTQSPSTLSASVGDRVTISCRASRAVSPWLAWYQHRPGQAPKLLIYAASSLQSGVPSRFSGSGSGTDFTLTISSLQPEDFATYYCQQYRSYPFTFGPGTTVDIRR",0.027,2.13 µg/mL,1.21 µg/mL,1.2 µg/mL,0.473,4.72 nM,0.0546 s⁻¹,1.16e+07 M⁻¹ s⁻¹
"A3-21 full-length fully human anti-IL-2 antibody (antibody, human IgG1, lambda, L234A L235A, V domains shown, Human IgG1 with LALA mutation) VH: EVQLLESGGGLAQPGGSLRLSCAGSGFTFSSYAMSWVRQAPGKGLEWVSGITGTGYRTYYADSVKGRFTVSRDNSRNTVYLQMNSLRAEDTAVYYCVRESGHYYGWFDSWGQGTLVTVSS VL: QSALTQPPSVSGAPGQRVTISCTGSSSNIGAGYNVHWYQQVPGTVPKLLIDGKGNRPSGVPDRFSGSKSGTSASLAITGLQAEDEADYYCQSYDYMLSGSVVFGRGTKLTVLG",0.003,3.48 µg/mL,1.35 µg/mL,1.46 µg/mL,0.428,–,–,–
"B2-15 full-length fully human anti-IL-2 antibody (antibody, human IgG1, kappa, L234A L235A, V domains shown, Human IgG1 with LALA mutation, kappa light chain) VH: EVQLLESGAEVKKPGASVKVSCKASGYTFTSYYMHWVRQAPGQGLEWMGIINPSGGSTSYAQKFQGRVTMTRDTSTSTVYMELSSLRSEDTAVYYCAREGNSSGYYNAFDIWGQGTMVTVSS VL: not shown",0.056,3.04 µg/mL,2.12 µg/mL,–,0.7,30.6 nM,0.0448 s⁻¹,1.46e+06 M⁻¹ s⁻¹
"A2-22 full-length fully human anti-IL-2 antibody (antibody, human IgG1, kappa, L234A L235A, V domains shown, Human IgG1 with L234A/L235A (LALA), kappa light chain; expressed in HEK293) VH: QVQLVQSGAEVKKPGASVKVSCKASGYTFTSYYMHWVRQAPGQGLEWMGIINPSGGSTSYAQKFQGRVTMTRDTSTSTVYMELSSLRSEDTAVYYCAREDWMEYEYYYGMDVWGQGTLVTVSS VL: EIVLTQSPGTLSLSPGERATLSCRASQSVSNNYLAWYQQKPGQAPRLLIYGASSRATGIPDRFSGSGSGTDFTLTISRLEPEDFAVYSCQQYGSSPLTFGQGTRLEIKR",0.042,2.73 µg/mL,1.29 µg/mL,–,0.848,39.8 nM,0.0527 s⁻¹,1.33e+06 M⁻¹ s⁻¹
